± gives the uncertainty stated by the source.
Assay: amyloid nucleation score (Sup35N fusion, yeast selection) (log enrichment); library NNK3; higher = more nucleation; inactive = no reads after selection
Procedure, shortened: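 The nucleation score equals the log enrichment of output over input reads from DiMSum, centred on the mode score of non-aggregating sequences. It was computed only for sequences with 100 or more input reads. The reads came from Illumina sequencing of plasmid inserts from psi-negative yeast expressing Sup35N fused to peptides of 20 random codons, induced with 100 μM copper sulfate for 24 hours and grown 7 days at 30°C without adenine and uracil.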

Substance	amyloid nucleation score
SLCLASGFKRCNIV	-0.072 ± 0.8
DFVTHWSVAMLMI	inactive
RVVLHITGLLPSSKKGVRGE	0.433 ± 0.25
RSQDNCR	inactive
GQSNMFCNWTFANVKRCNL	2.33 ± 0.071
KVYSIYTNKNFGCFDYNWCI	inactive
NTAYHKRRGW	-0.004 ± 0.71
LYITMRNVF	inactive
SFDILTAVVT	inactive
LWLFSGCFGYYVILATLYFL	inactive
RWTLYSLSTYYQLCF	0.685 ± 0.12
VGYGFIC	inactive
GNNVTHSRDRCSMWYWVHLL	inactive
VIYHPRFSRFLCEDWHDTCS	inactive
GVKTHGIAVMKVGLRRLCQG	inactive
YNRFLVVSGMGMSFYGKQYM	1.51 ± 0.074
YGSIV	inactive
VLLGTSECHSHKILQGKSAV	inactive
GPMWQLAVTCACSDNRMWTK	0.053 ± 0.51
AAYAALQMSK	inactive
FSSRHVTPCIRINFNIVSCS	inactive
HGKSYILVWCMRHSRTECVR	inactive
DGEASTRVSCGDDIFRKTSS	1.03 ± 0.16
FNQQLSECVDVARELAGG	1.99 ± 0.086
AYRRKLISGFIWERFLFRCG	inactive
GCIIGCQLDKYGPAMPSARE	0.632 ± 0.3
YWGIVVILSGDLRGYDH	inactive

Substance	amyloid nucleation score
YEDAAILDVCDPQIELLLHQ	inactive
VYLDYGGLHLRVLHTCRFYC	inactive
ASGVATSFGFRLWSCVEDIE	inactive
PDVNVRGGGQLVV	inactive
YKSVYMRF	0.709 ± 0.18
NSCYFFNLHYVYHETANCFI	3.2 ± 0.068
LSFRTQALFYFVMLYGIWRA	inactive
SLLSRFIEEGASCRCTRDGS	inactive
TSVSPRHLVSTSTMICSFAH	inactive
ISYSAMVNCPDEIWVRYSSW	inactive
GVLLNTSELGSNGMDSKTLD	inactive
CPCDTGVKQVTILEQGWVVM	0.963 ± 0.14
RKNAVCICSNL	inactive
AATYTTYHLESSNVYSFNFW	2.96 ± 0.048
WWCLFWVSWN	inactive
LEASESGIVEVPQPNYCITP	inactive
GDSIRSWNRGAVEIA	-0.377 ± 1.5
FCKLYINQYIYHDSVVVIVG	2.41 ± 0.06
MVWKHYTSLNRDCVFNICCW	1.78 ± 0.063
YVLLVWDCRLFSVRISFRSV	inactive
FIGLIVLILRVFGYDTMRYL	inactive
LCHWFL	inactive
SFSRCLNSLEVRNKNSWWVG	-0.181 ± 0.75
MFWCDNSGIMGADKGVALSW	inactive
YRVWTVYRVYILAGTKNIRS	inactive
RRRVSKANPGDVMIWSVIAK	inactive
LSLCRT	0.001 ± 0.32

Substance	amyloid nucleation score
EFFAPSVTDQMLTFRLLYKT	0.821 ± 0.26
LVVLFGPNFLIPVGLRIAVN	0.245 ± 0.37
TQLIIAGFVPNYVVLPWSAH	1.38 ± 0.11
RLHFCVGPMAPYSMEQSQ	inactive
NESHILPVVVMDCLRTFPTE	inactive
KREECILWLPLGNLLYNVLR	inactive
LVWSSRPTSW	inactive
YYLVYPRNIIMYKGNNFLKP	2.24 ± 0.063
YDFYTIVNIRTLHPRLIFFM	-0.195 ± 0.9
RSCCLQPT	inactive
YIFVSRIIGVPFRLVQVTSG	inactive
HWACNWI	inactive
DIQVFLTSSLQFIAEISVGG	inactive
LLSPQFRRIGSFRWKFAPRF	inactive
MSEVPGMNDTWRVCIMDQGK	inactive
SMCKDFSAACESICGIPVGY	inactive
EYTLPRPCRLLIFSDQYSNA	inactive
LHGHLGWWNVLDCPICLNFI	inactive
GDFYASGSPVKFVRVGMDEC	inactive
SGLRSTFDNTYTLYY	inactive
EKLIVNDYCRRSGPDMVAVD	inactive
MQLSCRLGSLCSQQSNLARS	inactive
NHESVVWDMNGHPSPVGRGE	inactive
CSLVLSESPFGNI	inactive
MLWLNNGGLYWIALIFEMSS	inactive

From the supplement of paper PMC12042874
